We go through 1 substance from paper doi:10.1101/2025.01.21.634180.

For the test, the target named is GIV (Gα-interacting vesicle-associated protein, also known as Girdin), endogenous (human (endogenous in THP1)) (UniProt Q3V6T2).
Sequence of UniProt Q3V6T2 (Q3V6T2 whole entry): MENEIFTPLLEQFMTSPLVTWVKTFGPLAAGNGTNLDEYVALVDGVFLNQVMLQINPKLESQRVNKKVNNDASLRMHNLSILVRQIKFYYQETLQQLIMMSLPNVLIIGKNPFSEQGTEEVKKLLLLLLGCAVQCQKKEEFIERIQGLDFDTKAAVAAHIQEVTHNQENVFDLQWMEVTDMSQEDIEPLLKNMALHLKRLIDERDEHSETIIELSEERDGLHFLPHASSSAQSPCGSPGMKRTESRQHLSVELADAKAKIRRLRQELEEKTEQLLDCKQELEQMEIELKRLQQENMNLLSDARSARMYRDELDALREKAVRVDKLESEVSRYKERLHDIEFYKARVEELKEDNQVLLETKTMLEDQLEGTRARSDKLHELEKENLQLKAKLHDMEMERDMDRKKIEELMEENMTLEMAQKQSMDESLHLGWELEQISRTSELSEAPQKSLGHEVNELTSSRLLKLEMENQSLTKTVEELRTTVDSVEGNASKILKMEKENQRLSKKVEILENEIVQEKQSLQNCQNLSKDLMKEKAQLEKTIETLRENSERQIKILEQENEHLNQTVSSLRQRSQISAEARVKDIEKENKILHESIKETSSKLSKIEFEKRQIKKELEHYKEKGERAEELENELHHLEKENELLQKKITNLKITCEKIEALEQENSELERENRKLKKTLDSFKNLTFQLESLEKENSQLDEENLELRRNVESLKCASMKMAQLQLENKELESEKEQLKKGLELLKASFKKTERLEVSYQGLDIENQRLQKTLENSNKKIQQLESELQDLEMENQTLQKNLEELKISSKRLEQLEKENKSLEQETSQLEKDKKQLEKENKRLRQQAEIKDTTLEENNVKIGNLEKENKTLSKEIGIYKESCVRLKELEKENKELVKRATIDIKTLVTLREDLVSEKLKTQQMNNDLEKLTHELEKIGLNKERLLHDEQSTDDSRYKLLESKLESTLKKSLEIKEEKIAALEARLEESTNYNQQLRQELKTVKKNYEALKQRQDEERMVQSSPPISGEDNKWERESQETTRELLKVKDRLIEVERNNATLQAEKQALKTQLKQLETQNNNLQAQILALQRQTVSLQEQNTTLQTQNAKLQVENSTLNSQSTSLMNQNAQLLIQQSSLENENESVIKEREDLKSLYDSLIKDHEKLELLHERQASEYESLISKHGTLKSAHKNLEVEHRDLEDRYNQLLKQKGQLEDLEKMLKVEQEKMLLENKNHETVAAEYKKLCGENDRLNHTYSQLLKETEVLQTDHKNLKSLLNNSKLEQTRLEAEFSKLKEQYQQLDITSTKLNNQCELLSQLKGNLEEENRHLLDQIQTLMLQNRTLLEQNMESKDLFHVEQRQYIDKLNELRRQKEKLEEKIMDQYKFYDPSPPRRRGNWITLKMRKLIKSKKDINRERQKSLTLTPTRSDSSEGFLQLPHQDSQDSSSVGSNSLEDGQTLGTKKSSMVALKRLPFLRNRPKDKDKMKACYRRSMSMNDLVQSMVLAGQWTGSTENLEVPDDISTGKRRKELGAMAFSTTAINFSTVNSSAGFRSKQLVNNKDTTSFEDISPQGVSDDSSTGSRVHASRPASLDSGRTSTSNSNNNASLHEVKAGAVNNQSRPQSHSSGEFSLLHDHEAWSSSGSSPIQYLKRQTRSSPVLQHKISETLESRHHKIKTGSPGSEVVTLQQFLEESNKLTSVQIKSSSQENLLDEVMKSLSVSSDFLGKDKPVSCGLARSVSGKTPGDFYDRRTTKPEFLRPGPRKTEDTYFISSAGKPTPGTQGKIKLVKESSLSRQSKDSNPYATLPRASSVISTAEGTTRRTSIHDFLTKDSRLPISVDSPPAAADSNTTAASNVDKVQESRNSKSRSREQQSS

Consider “HA-tagged NOD2–1007fs (from UniProt Q9HC29 1-1040) (natural protein)”, for which the suppression of LPS (100 ng/ml)-induced NFκB activation by MDP (10 μg/ml) pretreatment, luciferase reporter assay in HeLa cells transfected with NOD2-1007fs (% protection) came to 20%.
